According to publication PMC1762332, “Catalases Are NAD(P)H-Dependent Tellurite Reductases” (PLoS ONE, 2006):

B1: S. epidermidis CH catalase (product of the katA gene) expressed from plasmid pCAT (enzyme, Staphylococcus epidermidis CH, UniProt Q2PUJ9 1-504, looked up)
chain: MSKQDGKLTGLFGAPVSDRENSMTAGRRGPLLMQDVYYLEQISHFDREVIPERRMHAKGSGAFGTFTVTNDITQYTNAKIFSEVGKQTEMFARFSTVSGERGAADLERDIRGFALKFYTEDGNWDLVGNNTPVFFFRDPKLFISLNRAVKRDPRTNMRSAQNNWDFWTGLPEALHQVTILMSDRGMPKGFRNMHGFGSHTYSMYNDKGERVWVKYHFRTQQGIENYTDEEAAKIVGMDRDSSQRDLYNAIENGDYPKWKMYIQVMTEEQAKNHPDNPFDLTKVWYKKDYPLIEVGEFELNRNPENYFLDVEQAAFAPTNIVPGLDYSPDKMLQGRLFSYGDAQRYRLGVNHWQIPVNQPKGVGVENLCPFSRDGQMRFLDNNQGGGPHYYPNNQGIYESQPEHKKPPFPTDGDGYEYNYRQDDDNYFEQPGKLFRLQSEDAKERIFTNTANAMDGVSKDVKVRHIRHCYKADPEYGKGVAKALDIDINQIDLETNQDETYENFK
notes: catalase KatA of Staphylococcus epidermidis strain CH; The coding region was amplified with primers from the ATG to the stop codon; The 1,515 bp gene is deposited as GenBank DQ301862 and differs by 15 bp from its homolog SE1016 in strain ATCC12228; Cloned with the pBAD TOPO TA Expression Kit; also called S. epidermidis catalase; 60 kDa protein; source: E. coli Top10 carrying pCAT (pBAD vector), …
B2: bovine liver catalase (enzyme, UniProt P00432 1-527, looked up)
chain: MADNRDPASDQMKHWKEQRAAQKPDVLTTGGGNPVGDKLNSLTVGPRGPLLVQDVVFTDEMAHFDRERIPERVVHAKGAGAFGYFEVTHDITRYSKAKVFEHIGKRTPIAVRFSTVAGESGSADTVRDPRGFAVKFYTEDGNWDLVGNNTPIFFIRDALLFPSFIHSQKRNPQTHLKDPDMVWDFWSLRPESLHQVSFLFSDRGIPDGHRHMNGYGSHTFKLVNANGEAVYCKFHYKTDQGIKNLSVEDAARLAHEDPDYGLRDLFNAIATGNYPSWTLYIQVMTFSEAEIFPFNPFDLTKVWPHGDYPLIPVGKLVLNRNPVNYFAEVEQLAFDPSNMPPGIEPSPDKMLQGRLFAYPDTHRHRLGPNYLQIPVNCPYRARVANYQRDGPMCMMDNQGGAPNYYPNSFSAPEHQPSALEHRTHFSGDVQRFNSANDDNVTQVRTFYLKVLNEEQRKRLCENIAGHLKDAQLFIQKKAVKNFSDVHPEYGSRIQALLDKYNEEKPKNAVHTYVQHGSHLSAREKANL
notes: catalase (EC 1.11.1.6) from bovine liver, commercial purified enzyme; the legend calls it a tetramer of 255 kDa; also called bovine catalase; catalase (C-9322); source: bought: Sigma (C-9322), purified

Columns and labels:
[1] = target: the molecule itself; assay: native gel or EMSA; crude extracts of E. coli Top10 (pCAT) on native 12% polyacrylamide gel, 40 mM Tris-glycine pH 8.3, 4°C; catalase found by H2O2 dismutase and tellurite reductase activity staining in situ
[2] = target: the molecule itself; assay: native gel or EMSA; purified bovine liver catalase on native 12% polyacrylamide gel, 40 mM Tris-glycine pH 8.3, 4°C; band compared with a 244 kDa standard; dismutase and tellurite reductase activities stained in situ

| Protein | stoichiometry N [1] | stoichiometry N [2] |
| --- | --- | --- |
| B1 | 4 | – |
| B2 | – | 4 |
